Experimental data reported in patent US20260242478A1 (published 2026).
Where no end group is shown, it is not given here.

B1: Phage-526 (peptide)
peptide: YCEGHSPEYMAKCL
modifications: cysteine pairing not given here; also: displayed on phage as fusion to pIII, linker, pIII sequence and order not given here
notes: Clonal phage supernatant; not shown: pIII filament protein of the bacteriophage to which the peptide is fused
B2: Phage-535 (peptide)
peptide: YCDGHLPMYMQKCL
modifications: cysteine pairing not given here; also: displayed on phage as fusion to pIII, linker, pIII sequence and order not given here
notes: as for B1
B3: Phage-27 (peptide, not shown: large carriers)
peptide: MDWCPRDLWHLCFS
modifications: cysteine pairing not given here; also: displayed on phage as fusion to pIII, linker and pIII sequence not given here
notes: Clonal phage supernatant
B4: Phage-531 (peptide)
peptide: YCDGHSPMYILKCL
modifications: cysteine pairing not given here; also: displayed on phage as fusion to pIII, linker, pIII sequence and order not given here
notes: as for B1
B5: Phage-528 (peptide)
peptide: YCDGHLPQYMAKCL
modifications: cysteine pairing not given here; also: displayed on phage as fusion to pIII, linker, pIII sequence and order not given here
notes: as for B1
B6: Phage-533 (peptide)
peptide: YCEGHLPQYMAKCL
modifications: cysteine pairing not given here; also: displayed on phage as fusion to pIII, linker, pIII sequence and order not given here
notes: as for B1
B7: Phage-30 (peptide, not shown: large carriers)
peptide: MDWCPRDMWDECFA
modifications: cysteine pairing not given here; also: peptide displayed as fusion to phage pIII
notes: Clonal phage supernatant
B8: Phage-534 (peptide)
peptide: YCDGHSPLYMWKCL
modifications: cysteine pairing not given here; also: displayed on phage as fusion to pIII, linker, pIII sequence and order not given here
notes: as for B1
B9: Phage-19 (peptide, not shown: large carriers)
peptide: MDWCPIDLWNECFF
modifications: cysteine pairing not given here; also: phage-displayed pIII fusion, pIII and linker not given here
notes: Clonal phage supernatant
B10: Phage-538 (peptide)
peptide: YCDGHLPEYREKCF
modifications: cysteine pairing not given here; also: displayed on phage as fusion to pIII, linker, pIII sequence and order not given here
notes: as for B1
B11: Phage-529 (peptide)
peptide: YCQGHLPMYMAKCL
modifications: cysteine pairing not given here; also: displayed on phage as fusion to pIII, linker, pIII sequence and order not given here
notes: as for B1
B12: Phage-532 (peptide)
peptide: YCQGHLPMYMEKCL
modifications: cysteine pairing not given here; also: displayed on phage as fusion to pIII, linker, pIII sequence and order not given here
notes: as for B1
B13: Phage-9 (peptide, not shown: large carriers)
peptide: MDWCPRERWVDCFF
modifications: cysteine pairing not given here; also: displayed on phage as fusion to pIII, linker not given here
notes: Clonal phage supernatant
B14: Phage-25 (peptide, not shown: large carriers)
peptide: MDWCPRDLWDLCFA
modifications: cysteine pairing not given here; also: phage-displayed pIII fusion, pIII and linker not given here
notes: Clonal phage supernatant
B15: Phage-537 (peptide)
peptide: YCEGHSWANLGKCL
modifications: cysteine pairing not given here; also: displayed on phage as fusion to pIII, linker, pIII sequence and order not given here
notes: as for B1
B16: Phage-527 (peptide)
peptide: YCDGHLPEYMSKCL
modifications: cysteine pairing not given here; also: displayed on phage as fusion to pIII, linker, pIII sequence and order not given here
notes: as for B1
B17: Phage-530 (peptide)
peptide: YCDGHLPEYMMKCL
modifications: cysteine pairing not given here; also: displayed on phage as fusion to pIII, linker, pIII sequence and order not given here
notes: as for B1
B18: Phage-536 (peptide)
peptide: YCDGHLPIYMSKCL
modifications: cysteine pairing not given here; also: displayed on phage as fusion to pIII, linker, pIII sequence and order not given here
notes: as for B1
B19: Phage-539 (peptide)
peptide: YCEGHLPEYMLKCL
modifications: cysteine pairing not given here; also: displayed on phage as fusion to pIII, linker, pIII sequence and order not given here
notes: as for B1

Columns and labels:
[1] = biological target: T1, Anti-CD28 Fab (SEQ ID NOs: 696, 697); assay: phage binding ELISA; Fab wells pre-incubated with CD28 antigen as competitor, anti-M13 HRP
T1 construct: Biotinylated and captured on neutravidin coated plates in the phage ELISA
T1 sequence (VH, as listed by the source, chain 1 of 2): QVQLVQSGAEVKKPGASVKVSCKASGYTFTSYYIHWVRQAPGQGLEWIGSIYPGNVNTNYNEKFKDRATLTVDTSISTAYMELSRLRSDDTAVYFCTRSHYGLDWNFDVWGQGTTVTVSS
T1 sequence (VL, as listed by the source, chain 2 of 2): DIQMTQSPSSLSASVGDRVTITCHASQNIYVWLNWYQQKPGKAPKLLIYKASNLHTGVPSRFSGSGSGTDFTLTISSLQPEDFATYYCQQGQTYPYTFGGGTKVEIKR
Method: (§1) After panning, phage infected bacteria were plated out and colonies picked into 96 well blocks. Clonal phage was then amplified and separated from bacterial cells via centrifugation.
(§2) Clonal phage were harvested as crude supematants and screened via standard ELISAs. […] Prior to the addition of clonal phage, wells were incubated with blocking buffer and CD28 antigen or blocking buffer alone. Without washing or aspirating, clonal phage supematants were then added to the wells and incubated for a short time. Wells were then washed followed by detection of bound phage using a horse radish conjugated anti-M13 antibody. Clonal phage of interest were then sent for sequence analysis.

[2] = biological target: T1, Anti-CD28 Fab (SEQ ID NOs: 696, 697); assay: phage binding ELISA; biotinylated Fab on neutravidin plate, clonal phage supernatant, anti-M13 HRP;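 further: clones picked after panning, added to wells pre-incubated with CD28 antigen or with blocking buffer only, no wash before phage addition, bound phage read after washing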
Method: as §1, §2

[3] = biological target: T2, anti-CD28 scFv (VH - linker 1 - VL) (biotinylated (site not stated)); assay: phage ELISA; biotinylated anti-CD28 scFv on neutravidin plate, clonal phage supernatant, anti-M13-HRP detection;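 further: before phage addition, wells were pretreated with soluble CD28 protein in blocking buffer, or with blocking buffer only as the comparison, then phage were added without washing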
T2 sequence (scFv, as listed by the source): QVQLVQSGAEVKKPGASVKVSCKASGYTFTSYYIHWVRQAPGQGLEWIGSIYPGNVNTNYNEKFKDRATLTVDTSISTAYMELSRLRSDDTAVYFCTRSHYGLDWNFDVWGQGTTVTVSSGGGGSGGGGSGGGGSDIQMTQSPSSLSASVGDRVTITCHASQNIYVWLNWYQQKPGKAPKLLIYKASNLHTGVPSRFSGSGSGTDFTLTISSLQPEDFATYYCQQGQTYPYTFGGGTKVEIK

[4] = biological target: T2, anti-CD28 scFv (VH - linker 1 - VL); assay: same phage ELISA, wells pre-incubated with soluble CD28 (competitor)
Method: Clonal phage were harvested as crude supernatants and screened via standard enzyme linked immunosorbent assays (ELISAs). […] Prior to the addition of clonal phage, wells were incubated with blocking buffer and CD28 soluble protein or blocking buffer alone. Without washing or aspirating, clonal phage supernatants were then added to the wells and incubated for a short time. Wells were then washed followed by detection of bound phage using a horse radish peroxidase conjugated anti-M13 antibody.

[5] = biological target: T3, Anti-CD28 Fab (SEQ ID NOs: 696, 697); assay: phage ELISA; Fab-coated wells pre-incubated with CD28 antigen as competitor, anti-M13-HRP detection
T3 construct: In the phage ELISA the Fab was biotinylated and captured on neutravidin coated plates
T3 sequence (VH, as listed by the source, chain 1 of 2): as the sequence (VH, as listed by the source, chain 1 of 2) above
T3 sequence (VL, as listed by the source, chain 2 of 2): as the sequence (VL, as listed by the source, chain 2 of 2) above
Method: as §1, §2

[6] = biological target: T3, Anti-CD28 Fab (SEQ ID NOs: 696, 697); assay: phage ELISA; biotinylated anti-CD28 Fab on neutravidin plates, bound phage detected with anti-M13-HRP
Method: as §1, §2

| Binder | Anti-CD28 Fab signal in the presence of CD28 [1] | Anti-CD28 Fab (SEQ ID NOs: 696, 697) signal [2] | CD28 scFv signal [3] | CD28 scFv signal in presence of CD28 [4] | further results |
| --- | --- | --- | --- | --- | --- |
| B1 | 0.07 | 2.35 |  |  |  |
| MDWCPIYLWSECFN (peptide, not shown: large carriers, Clonal phage supernatant) [Phage-21] |  |  | 2.63 | 0.513 |  |
| MDWCPRDLWSECFF (peptide, not shown: large carriers, Clonal phage supernatant) [Phage-28] |  |  | 2.57 | 0.218 |  |
| B2 | 0.11 | 2.33 |  |  |  |
| YCDGHSPIYMSKCL (Tested as clonal phage supernatant) [Phage-710] |  |  |  |  | Phage binding ELISA, Anti-CD28 Fab signal in the presence of CD28 [5]: 0.09; Phage binding ELISA, Anti-CD28 Fab signal [6]: 2 |
| B3 |  |  | 2.59 | 0.29 |  |
| B4 | 0.08 | 2.34 |  |  |  |
| YCEGHLSQYMQKCL (Tested as clonal phage supernatant) [Phage-709] |  |  |  |  | Phage binding ELISA, Anti-CD28 Fab signal in the presence of CD28 [5]: 0.09; Phage binding ELISA, Anti-CD28 Fab signal [6]: 2 |
| B5 | 0.15 | 2.35 |  |  |  |
| B6 | 0.14 | 2.34 |  |  |  |
| B7 |  |  | 2.59 | 0.25 |  |
| MDWCPRDMWSECFA (peptide, not shown: large carriers, Clonal phage supernatant) [Phage-31] |  |  | 2.7 | 0.293 |  |
| MDWCPMHLWHQCFN (peptide, not shown: large carriers, Clonal phage supernatant) [Phage-39] |  |  | 2.56 | 0.299 |  |
| B8 | 0.08 | 2.34 |  |  |  |
| B9 |  |  | 2.52 | 0.187 |  |
| MDWCPLYLWNECFN (peptide, not shown: large carriers, Clonal phage supernatant) [Phage-24] |  |  | 2.61 | 0.247 |  |
| B10 | 0.07 | 2.32 |  |  |  |
| B11 | 0.08 | 2.34 |  |  |  |
| B12 | 0.09 | 2.34 |  |  |  |
| B13 |  |  | 2.04 | 0.489 |  |
| B14 |  |  | 2.7 | 0.219 |  |
| B15 | 0.08 | 2.32 |  |  |  |
| B16 | 0.14 | 2.35 |  |  |  |
| B17 | 0.11 | 2.34 |  |  |  |
| B18 | 0.08 | 2.32 |  |  |  |
| B19 | 0.09 | 2.32 |  |  |  |
| MDWCPIHLWHVCFN (peptide, not shown: large carriers, cysteine pairing not given here; also: displayed as fusion to phage pIII, Clonal phage supernatant) [Phage-20] |  |  | 2.53 | 0.167 |  |
